From PMC4930246 (Structure (London, England : 1993), 2015) come the findings set out here.

The series “AUC” concerns the molecule itself. Description: AUC.
For the next series, the target named is T1, FLRT3-LRR R117T (mouse, UniProt Q8BGT1 29-386, R117T, additional N-linked glycosylation at Asn115).
T1 sequence (looked up): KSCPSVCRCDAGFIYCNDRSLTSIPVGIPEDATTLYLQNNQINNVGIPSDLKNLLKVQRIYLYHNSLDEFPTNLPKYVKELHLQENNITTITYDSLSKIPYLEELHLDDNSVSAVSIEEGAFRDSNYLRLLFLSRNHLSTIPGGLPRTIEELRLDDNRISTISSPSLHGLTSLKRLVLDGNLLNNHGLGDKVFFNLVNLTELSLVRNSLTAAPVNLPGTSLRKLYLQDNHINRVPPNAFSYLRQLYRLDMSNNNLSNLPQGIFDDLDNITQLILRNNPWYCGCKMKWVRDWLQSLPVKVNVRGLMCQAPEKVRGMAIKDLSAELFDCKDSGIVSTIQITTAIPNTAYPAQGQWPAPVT
The series is described as follows: ITC.

The target of a further series is T2, FLRT3-LRR F160A (mouse, UniProt Q8BGT1 29-386, F160A).
T2 sequence (looked up): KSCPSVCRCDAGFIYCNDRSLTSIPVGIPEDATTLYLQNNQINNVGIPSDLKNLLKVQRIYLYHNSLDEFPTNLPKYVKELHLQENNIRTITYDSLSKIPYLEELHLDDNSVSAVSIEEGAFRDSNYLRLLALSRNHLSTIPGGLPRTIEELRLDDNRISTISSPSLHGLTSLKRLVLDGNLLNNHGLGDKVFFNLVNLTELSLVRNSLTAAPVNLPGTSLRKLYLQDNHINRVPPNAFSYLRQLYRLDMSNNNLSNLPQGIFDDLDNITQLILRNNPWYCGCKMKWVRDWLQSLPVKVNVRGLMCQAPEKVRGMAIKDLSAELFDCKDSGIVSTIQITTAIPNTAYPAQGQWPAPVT
Description: ITC.

B1: FLRT3-LRR (leucine-rich repeat domain of mouse FLRT3, amino acids 29-386) (domain or fragment, UniProt Q8BGT1 29-386, looked up)
chain: KSCPSVCRCDAGFIYCNDRSLTSIPVGIPEDATTLYLQNNQINNVGIPSDLKNLLKVQRIYLYHNSLDEFPTNLPKYVKELHLQENNIRTITYDSLSKIPYLEELHLDDNSVSAVSIEEGAFRDSNYLRLLFLSRNHLSTIPGGLPRTIEELRLDDNRISTISSPSLHGLTSLKRLVLDGNLLNNHGLGDKVFFNLVNLTELSLVRNSLTAAPVNLPGTSLRKLYLQDNHINRVPPNAFSYLRQLYRLDMSNNNLSNLPQGIFDDLDNITQLILRNNPWYCGCKMKWVRDWLQSLPVKVNVRGLMCQAPEKVRGMAIKDLSAELFDCKDSGIVSTIQITTAIPNTAYPAQGQWPAPVT
modifications: N-linked glycosylation (three predicted sites; one N-Acetyl-glucosamine modelled on Asn226)
By Kd is commonly meant the constant that tells how readily two partners part at equilibrium. A high value points to weaker binding. As a reminder, the stoichiometry N is the number of molecules, sites or subunits per partner or assembly. As to B1, in “AUC”, the affinity, expressed as Kd, was 43300 nM and the “stoichiometry N” value is 2.

B2: LPHN3-OLF (olfactomedin domain of mouse latrophilin 3, amino acids 199-495) (domain or fragment, UniProt Q80TS3 199-495, looked up)
chain: KVFLCPGLLKGVYQSEHLFESDHQSGAWCKDPLQASDKIYYMPWTPYRTDTLTEYSSKDDFIAGRPTTTYKLPHRVDGTGFVVYDGALFFNKERTRNIVKFDLRTRIKSGEAIIANANYHDTSPYRWGGKSDIDLAVDENGLWVIYATEQNNGKIVISQLNPYTLRIEGTWDTAYDKRSASNAFMICGILYVVKSVYEDDDNEATGNKIDYIYNTDQSKDSLVDVPFPNSYQYIAAVDYNPRDNLLYVWNNYHVVKYSLDFGPLDSRSGPVHHGQVSYISPPIHLDSELERPPVRGI
Consider B2, for which the values for the dissociation constant (Kd) with FLRT3-LRR R117T and in the series with FLRT3-LRR F160A were 27 nM and 1000 nM, respectively.
